Results reported in article PMC3406662 (The Journal of Biological Chemistry, 2012).

Target: the molecule itself
Experiment: AUC

B1: His6-Dma1(187–end) (domain or fragment, S. pombe, UniProt Q10322 187-267, looked up)
chain: SGPPECCICLMPVLPCQALFVAPCSHSYHYKCIRPTLNESHPYFSCFICRKYHDLEAPVEEGDESLNDLLRNATVKDDASE
stoichiometry N: 2
